In article PMC2752310 one finds Kd data, which are given here for one molecule.

In general, Kd refers to the concentration at which binding is half-saturated. A higher Kd goes with lower affinity.

The assay has as its target purified β protein (β clamp) (UniProt P0A988). In words: SPR. In general terms: Surface plasmon resonance follows binding to a sensor surface in real time, without labels.

B1: His-6-tagged TnsE, purified (natural protein)
chain: MVRLATFNDNVQVVHIGHLFRNSGHKEWRIFVWFNPMQERKWTRFTHLPLLSRAKVVNSTTKQINKADRVIEFEASDLQRAKIIDFPNLSSFASVRNKDGAQSSFIYEAETPYSKTRYHIPQLELARSLFLINSYFCRSCLSSTALQQEFDVQYEVERDHLEIRILPSSSFPKGALEQSAVVQLLVWLFSDQDVMDSYESIFRHYQQNREIKNGVESWCFSFDPPPMQGWKLHVKGRSSNEDKDYLVEEIVGLEINAMLPSTTAISHASFQEKEAGDGSTQHIAVSTESVVDDEHLQLDDEETANIDTDTRVIEAEPTWISFSRPSRIEKSRRARKSSQTILEKEEATTSENSNLVSTDEPHLGGVLAAADVGGKQDATNYNSIFANRFAAFDELLSILKTKFACRVLFEETLVLPKVGRSRLHLCKDGSPRVIKAVGVQRNGSEFVLLEVDASDGVKMLSTKVLSGVDSETWRNDFEKIRRGVVKSSLNWPNSLFDQLYGQDGHRGVNHPKGLGELQVSREDMEGWAERVVREQFTH
As to B1, the Kd came out at 2440 nM.
